In publication PMC6005519, “Reconstitution and functional studies of hamster P-glycoprotein in giant liposomes” (PLoS ONE, 2018):

Test system: T1, Nc1ncnc2c1ncn2[C@@H]1O[C@H](COP(=O)(O)OP(=O)(O)OP(=O)(O)O)[C@@H](O)[C@H]1O
T1 construct: Purified Pgp extracted from Chinese Hamster Ovary B30 cells, reconstituted in giant liposomes
Test: Km of ATP from Rho123 transport rates in giant proteoliposomes; colorimetric ATPase assay
Type: biochemical, Cricetulus griseus

Sequence of P-glycoprotein (Pgp, ABCB1) (Cricetulus griseus) (chain, as listed by the source): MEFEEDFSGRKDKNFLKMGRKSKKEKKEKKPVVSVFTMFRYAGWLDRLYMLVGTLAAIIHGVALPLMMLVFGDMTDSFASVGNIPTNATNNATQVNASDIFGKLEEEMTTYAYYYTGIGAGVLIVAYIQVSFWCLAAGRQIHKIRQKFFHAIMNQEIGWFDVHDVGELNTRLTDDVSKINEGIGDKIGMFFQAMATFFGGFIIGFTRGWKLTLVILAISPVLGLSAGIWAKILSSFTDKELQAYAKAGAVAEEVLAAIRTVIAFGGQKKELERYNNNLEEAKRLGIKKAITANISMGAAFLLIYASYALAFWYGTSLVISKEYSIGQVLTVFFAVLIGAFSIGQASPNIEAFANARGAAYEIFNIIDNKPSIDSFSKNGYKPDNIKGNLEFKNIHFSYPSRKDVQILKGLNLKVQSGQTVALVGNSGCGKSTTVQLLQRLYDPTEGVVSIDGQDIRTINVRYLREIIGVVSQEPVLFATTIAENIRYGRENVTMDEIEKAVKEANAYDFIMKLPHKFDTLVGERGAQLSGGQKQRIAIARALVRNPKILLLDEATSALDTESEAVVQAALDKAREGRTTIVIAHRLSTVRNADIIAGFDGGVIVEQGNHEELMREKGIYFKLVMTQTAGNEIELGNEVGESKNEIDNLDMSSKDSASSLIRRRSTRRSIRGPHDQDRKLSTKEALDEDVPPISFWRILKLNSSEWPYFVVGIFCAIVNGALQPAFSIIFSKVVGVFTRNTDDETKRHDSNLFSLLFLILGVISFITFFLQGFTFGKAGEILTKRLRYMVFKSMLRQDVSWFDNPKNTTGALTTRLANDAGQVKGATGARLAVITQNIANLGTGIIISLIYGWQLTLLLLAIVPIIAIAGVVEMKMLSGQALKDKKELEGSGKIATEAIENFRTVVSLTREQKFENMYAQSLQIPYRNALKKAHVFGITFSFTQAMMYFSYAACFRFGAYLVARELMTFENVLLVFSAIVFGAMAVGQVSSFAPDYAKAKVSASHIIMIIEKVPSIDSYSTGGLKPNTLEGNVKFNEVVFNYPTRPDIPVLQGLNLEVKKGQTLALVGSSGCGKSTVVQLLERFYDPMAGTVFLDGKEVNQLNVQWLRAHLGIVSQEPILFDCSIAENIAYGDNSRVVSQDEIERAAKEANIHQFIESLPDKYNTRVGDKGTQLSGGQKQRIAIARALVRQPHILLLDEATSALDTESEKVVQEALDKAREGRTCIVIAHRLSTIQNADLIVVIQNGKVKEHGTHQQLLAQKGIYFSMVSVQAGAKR

**Q.** Which Km does the source give for “P-glycoprotein (Pgp, ABCB1) (Cricetulus griseus)” here?
**A.** 420 ± 750 µM
